Experimental data taken from paper PMC3843708, “Mutational Analysis of Sclerostin Shows Importance of the Flexible Loop and the Cystine-Knot for Wnt-Signaling Inhibition” (PLoS ONE, 2013).

Experiments:
[1] = target: LRP6 second propeller domain (Homo sapiens) (UniProt O75581); conditions: cited from earlier work
[2] = target: LRP6 first propeller domain (Homo sapiens) (UniProt O75581); conditions: cited from earlier work
LRP6 E3E4 (Homo sapiens) = LRP6 E3E4 (Homo sapiens) (UniProt O75581); conditions: cited from earlier work
LRP6 E1E2 (Homo sapiens) = LRP6 E1E2 (Homo sapiens) (UniProt O75581); conditions: cited from earlier work
human LRP6 = human LRP6 (human, UniProt O75581 20-1613); assay: cell-based or functional assay
[3] = target: T1, human LRP6 protein fragment comprising propeller domains E1 and E2 (LRP6E1E2) (human, UniProt O75581 20-630); assay: cell-based or functional assay
T1 sequence (looked up): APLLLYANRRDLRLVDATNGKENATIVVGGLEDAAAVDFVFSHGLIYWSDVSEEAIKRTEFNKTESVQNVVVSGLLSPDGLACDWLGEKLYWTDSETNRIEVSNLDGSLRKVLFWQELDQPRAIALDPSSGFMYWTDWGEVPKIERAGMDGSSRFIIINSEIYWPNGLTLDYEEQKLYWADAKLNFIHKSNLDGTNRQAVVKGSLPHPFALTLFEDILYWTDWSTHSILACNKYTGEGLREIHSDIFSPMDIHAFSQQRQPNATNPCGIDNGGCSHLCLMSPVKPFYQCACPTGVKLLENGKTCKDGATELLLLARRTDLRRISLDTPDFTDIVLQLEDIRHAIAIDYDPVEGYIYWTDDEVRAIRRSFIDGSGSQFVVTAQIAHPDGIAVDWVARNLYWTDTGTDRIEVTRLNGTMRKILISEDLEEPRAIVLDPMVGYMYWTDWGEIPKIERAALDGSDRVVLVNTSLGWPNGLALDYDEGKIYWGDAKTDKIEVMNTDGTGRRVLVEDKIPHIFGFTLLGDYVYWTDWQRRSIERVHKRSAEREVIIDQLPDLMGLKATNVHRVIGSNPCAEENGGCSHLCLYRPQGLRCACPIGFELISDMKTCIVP

Chain of LRP6 E3E4 (Homo sapiens) (O75581 631-1246): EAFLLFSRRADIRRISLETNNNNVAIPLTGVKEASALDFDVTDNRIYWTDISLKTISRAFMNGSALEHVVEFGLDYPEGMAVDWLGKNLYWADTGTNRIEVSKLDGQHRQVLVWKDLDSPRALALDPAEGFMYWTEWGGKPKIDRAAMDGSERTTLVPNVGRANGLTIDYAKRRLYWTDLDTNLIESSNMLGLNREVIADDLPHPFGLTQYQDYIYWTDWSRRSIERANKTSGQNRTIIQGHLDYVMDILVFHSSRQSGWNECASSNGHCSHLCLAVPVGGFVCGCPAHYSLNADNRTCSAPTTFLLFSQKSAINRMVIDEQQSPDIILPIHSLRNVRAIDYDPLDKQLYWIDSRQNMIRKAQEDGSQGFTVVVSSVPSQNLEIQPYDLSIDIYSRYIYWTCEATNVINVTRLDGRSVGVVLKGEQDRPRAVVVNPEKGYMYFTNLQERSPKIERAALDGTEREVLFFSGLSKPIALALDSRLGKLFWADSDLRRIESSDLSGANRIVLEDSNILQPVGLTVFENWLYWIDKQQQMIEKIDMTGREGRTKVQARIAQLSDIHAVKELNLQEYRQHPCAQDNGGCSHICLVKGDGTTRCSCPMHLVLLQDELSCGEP

## Sclerostin (from UniProt Q9BQB4)
[1]
  Kd: 1.3 µM
[2]
  Kd: 0.06 µM

## Dkk1 (from UniProt O94907)
LRP6 E3E4 (Homo sapiens)
  Kd: 0.06 µM
LRP6 E1E2 (Homo sapiens)
  Kd: 0.06 µM

B1: wildtype full-length murine Sclerostin (natural protein, UniProt Q99P68 24-211, looked up)
chain: QGWQAFRNDATEVIPGLGEYPEPPPENNQTMNRAENGGRPPHHPYDAKDVSEYSCRELHYTRFLTDGPCRSAKPVTELVCSGQCGPARLLPNAIGRVKWWRPNGPDFRCIPDRYRAQRVQLLCPGGAAPRSRKVRLVASCKCKRLTRFHNQSELKDFGPETARPQKGRKPRPGARGAKANQAELENAY
modifications: 125I-iodinated (Chloramine T) where used as radioligand; biotinylated (EZ-Link Sulfo-NHS-LC-Biotin, molar ratio 1:1.5) in the pull-down
Human LRP6
  IC50 of inhibition of Wnt1-driven SuperTOPFlash luciferase reporter, HEK-293TSA M50 cells transfected with mWnt1: 0.01 µM

B2: Sclerostin C84AC142R (natural protein, murine, UniProt Q99P68 24-211, looked up)
chain: QGWQAFRNDATEVIPGLGEYPEPPPENNQTMNRAENGGRPPHHPYDAKDVSEYSCRELHYTRFLTDGPCRSAKPVTELVCSGQAGPARLLPNAIGRVKWWRPNGPDFRCIPDRYRAQRVQLLCPGGAAPRSRKVRLVASCKRKRLTRFHNQSELKDFGPETARPQKGRKPRPGARGAKANQAELENAY
modifications: biotinylated (EZ-Link Sulfo-NHS-LC-Biotin, molar ratio 1:1.5) in the pull-down
[3]
  fold decrease against wildtype of the efficiency to inhibit Wnt1-driven SuperTOPFlash luciferase reporter (supernatants of HEK Freestyle cells expressing the variant): 10 fold

B3: Sclerostin Alaloop (natural protein, murine, UniProt Q99P68 24-211, looked up)
chain: QGWQAFRNDATEVIPGLGEYPEPPPENNQTMNRAENGGRPPHHPYDAKDVSEYSCRELHYTRFLTDGPCRSAKPVTELVCSGQCGPARLSPGASGARSGSAPAGPDFRCIPDRYRAQRVQLLCPGGAAPRSRKVRLVASCKCKRLTRFHNQSELKDFGPETARPQKGRKPRPGARGAKANQAELENAY
modifications: 125I-iodinated (Chloramine T) where used as radioligand
Human LRP6
  IC50 of inhibition of Wnt1-driven SuperTOPFlash luciferase reporter, HEK-293TSA M50 cells transfected with mWnt1: 0.831 µM
  IC50 of inhibition of Wnt3a-driven SuperTOPFlash luciferase reporter, HEK-293TSA M50 cells with 1.5 nM mWnt3a: 1.11 µM

B4: Sclerostin N92A (natural protein, murine, UniProt Q99P68 24-211, looked up)
chain: QGWQAFRNDATEVIPGLGEYPEPPPENNQTMNRAENGGRPPHHPYDAKDVSEYSCRELHYTRFLTDGPCRSAKPVTELVCSGQCGPARLLPAAIGRVKWWRPNGPDFRCIPDRYRAQRVQLLCPGGAAPRSRKVRLVASCKCKRLTRFHNQSELKDFGPETARPQKGRKPRPGARGAKANQAELENAY
Human LRP6
  IC50 of inhibition of Wnt1-driven SuperTOPFlash luciferase reporter, HEK-293TSA M50 cells transfected with mWnt1: 0.196 µM

B5: Sclerostin I94A (natural protein, murine, UniProt Q99P68 24-211, looked up)
chain: QGWQAFRNDATEVIPGLGEYPEPPPENNQTMNRAENGGRPPHHPYDAKDVSEYSCRELHYTRFLTDGPCRSAKPVTELVCSGQCGPARLLPNAAGRVKWWRPNGPDFRCIPDRYRAQRVQLLCPGGAAPRSRKVRLVASCKCKRLTRFHNQSELKDFGPETARPQKGRKPRPGARGAKANQAELENAY
Human LRP6
  IC50 of inhibition of Wnt1-driven SuperTOPFlash luciferase reporter, HEK-293TSA M50 cells transfected with mWnt1: 0.0269 µM

B6: Sclerostin ΔLoop (natural protein, murine, UniProt Q99P68 24-211, looked up)
chain: QGWQAFRNDATEVIPGLGEYPEPPPENNQTMNRAENGGRPPHHPYDAKDVSEYSCRELHYTRFLTDGPCRSAKPVTELVCSGQCGPARLGSGPDFRCIPDRYRAQRVQLLCPGGAAPRSRKVRLVASCKCKRLTRFHNQSELKDFGPETARPQKGRKPRPGARGAKANQAELENAY
modifications: 125I-iodinated (Chloramine T) where used as radioligand; biotinylated (EZ-Link Sulfo-NHS-LC-Biotin, molar ratio 1:1.5) in the pull-down
Human LRP6
  IC50 of inhibition of Wnt1-driven SuperTOPFlash luciferase reporter, HEK-293TSA M50 cells transfected with mWnt1: 0.806 µM
  IC50 of inhibition of Wnt3a-driven SuperTOPFlash luciferase reporter, HEK-293TSA M50 cells with 1.5 nM mWnt3a: 0.655 µM
